We go through 5 molecules from patent US5849493, “Screening assay for compounds stimulating somatostatin transcription factor -1 binding to an STF-1 binding site” (Research Development Foundation, dated 1997).

Experiment [1] has as its target T1, Pbx1, in vitro translated protein (human, UniProt P40424). The experiment is described as follows: gel mobility shift, TSEII probe, reticulocyte lysate programmed with PBX RNA. The text has this:
Isl1 H.D., homeodomain of the lim domain factor Isl1. PBX interaction motif-Isl1 H.D., STF-1-Isl1 fusion protein containing STF-1 PBX interaction motif region (amino acid residues 110–138) fused to the Isl1 homeodomain. cdx3 H.D., homeodomain of the pancreatic homeobox protein cdx3 (amino acid residues 143–253). PBX interaction motif-cdx3, fusion protein containing STF-1 PBX interaction motif region (amino acid residues 110–138) fused to the cdx3 homeodomain (amino acid residues 176–253). PBX interaction motif-STF-1, STF-1 polypeptide containing the PBX interaction motif region (110–138) fused to the STF-1 homeodomain (amino acid residues 140–215). STF-1 H.D. STF-1 homeodomain alone without the PBX interaction motif region. […] Cooperativity with PBX tested with homeodomain fusion proteins shown over each lane. Monomeric and heterodimeric complexes as labeled.
(§1) Gel mobility shift assays were performed exactly as described previously (20) using 0.1 ng of end-labeled double stranded oligonucleotide whose sequences are presented in FIG. 2C. For off-rate analysis, the TSEII probe was first incubated with the proteins at room temperature for 30 minutes, then a 1000-fold excess of unlabeled TSEII oligonucleotide was added and aliquots were loaded at various time points on a running gel. In supershift assays, TU6 nuclear cell extract was preincubated with 1 µl of Pbx (11) or STF-antiserum (20) for 15 minutes at room temperature before adding the TSEII probe.

In experiment [2] the target is T1, Pbx1, in vitro translated protein. In words: gel mobility shift, TSEII probe. On the procedure: Deletion endpoints in mutant STF-1 polypeptides are indicated over each lane. For example, Δ1-70 indicates STF-1 polypeptide lacking residues 1–70. Hox 140–215, STF-1 homeodomain polypeptide. […] H.D., STF-1 homeodomain (amino acid residues 140–215). Full length STF-1 protein extends from amino acid residues 1–284.
as §1

B1: GST-PBX interaction motif-Isl1 H.D. fusion protein (other)
chain: EEPSRVHLPFPWMKSTKAHAWKSQWAGGAKQPEKTTRVRTVLNEKQLHTLRTCYAANPRPDALMKEQLVEMTGLSPRVIRVWFQNKRCKDKKRSIMMKQLQQ
With B1, in experiment [1], the binding result is reported as “no binding”.

B2: GST-cdx3 H.D. fusion protein (other)
chain: PPGPAATGAAEQLSPSGQRRNLCEWMRKPAQPSLGSQVKTRTKDKYRVVYTDHQRLELEKEFHYSRYITIRRKAELAATLGLSERQVKIWFQNRRAKERKINKKKLQQQQQ
For B2, the binding result in experiment [1] is listed as “no binding”.

B3: GST-PBX interaction motif-cdx3 fusion protein (other)
chain: EEPSRVHLPFPWMKSTKAHAWKSQWAGGALGSQVKTRTKDKYRVVYTDHQRLELEKEFHYSRYITIRRKAELAATLGLSERQVKIWFQNRRAKERKINKKKLQQQQQ
With B3, the binding result in experiment [1] was “no binding”.

B4: STF-1 homeodomain polypeptide Hox 140-215 (other)
chain: not shown
Regarding B4, the binding result in experiment [2] was “no binding”.

B5: GST-Isl1 H.D. fusion protein (other)
chain: KQPEKTTRVRTVLNEKQLHTLRTCYAANPRPDALMKEQLVEMTGLSPRVIRVWFQNKRCKDKKRSIMMKQLQQ
B5: the binding result in experiment [1] is on record as “no binding”.
